Columns and labels:
Details in all cases: protein: recombinant;recombinant;recombinant; copies: 1;1;1; label: 5'-Cy3 on Oligo 2; 25 bp duplex; 5' overhang 35 nt on strand 1
CTC1;STN1 WT;TEN1 = CTC1;STN1 WT;TEN1 (human;human;human, UniProt Q2NKJ3;Q9H668;Q86WV5 1-1217;1-368;1-123, ||); assay: EMSA; EMSA: 60 nM DNA, 35 mM Tris-HCl pH 7.5, 1 mM DTT, 100 ng/uL BSA, 50 mM KCl, 37 C, 5 min; 0.8% agarose, 1x TBE, 4 C
CTC1;STN1 S96D;TEN1 = CTC1;STN1 S96D;TEN1 (human;human;human, UniProt Q2NKJ3;Q9H668;Q86WV5 1-1217;1-368;1-123, |S96D|); assay: EMSA; affinity comparable to WT-CST; EMSA: 60 nM DNA, 35 mM Tris-HCl pH 7.5, 1 mM DTT, 100 ng/uL BSA, 50 mM KCl, 37 C, 5 min; 0.8% agarose, 1x TBE, 4 C
Sequence of CTC1;STN1 S96D;TEN1 (Q2NKJ3 whole entry, chain 1 of 3): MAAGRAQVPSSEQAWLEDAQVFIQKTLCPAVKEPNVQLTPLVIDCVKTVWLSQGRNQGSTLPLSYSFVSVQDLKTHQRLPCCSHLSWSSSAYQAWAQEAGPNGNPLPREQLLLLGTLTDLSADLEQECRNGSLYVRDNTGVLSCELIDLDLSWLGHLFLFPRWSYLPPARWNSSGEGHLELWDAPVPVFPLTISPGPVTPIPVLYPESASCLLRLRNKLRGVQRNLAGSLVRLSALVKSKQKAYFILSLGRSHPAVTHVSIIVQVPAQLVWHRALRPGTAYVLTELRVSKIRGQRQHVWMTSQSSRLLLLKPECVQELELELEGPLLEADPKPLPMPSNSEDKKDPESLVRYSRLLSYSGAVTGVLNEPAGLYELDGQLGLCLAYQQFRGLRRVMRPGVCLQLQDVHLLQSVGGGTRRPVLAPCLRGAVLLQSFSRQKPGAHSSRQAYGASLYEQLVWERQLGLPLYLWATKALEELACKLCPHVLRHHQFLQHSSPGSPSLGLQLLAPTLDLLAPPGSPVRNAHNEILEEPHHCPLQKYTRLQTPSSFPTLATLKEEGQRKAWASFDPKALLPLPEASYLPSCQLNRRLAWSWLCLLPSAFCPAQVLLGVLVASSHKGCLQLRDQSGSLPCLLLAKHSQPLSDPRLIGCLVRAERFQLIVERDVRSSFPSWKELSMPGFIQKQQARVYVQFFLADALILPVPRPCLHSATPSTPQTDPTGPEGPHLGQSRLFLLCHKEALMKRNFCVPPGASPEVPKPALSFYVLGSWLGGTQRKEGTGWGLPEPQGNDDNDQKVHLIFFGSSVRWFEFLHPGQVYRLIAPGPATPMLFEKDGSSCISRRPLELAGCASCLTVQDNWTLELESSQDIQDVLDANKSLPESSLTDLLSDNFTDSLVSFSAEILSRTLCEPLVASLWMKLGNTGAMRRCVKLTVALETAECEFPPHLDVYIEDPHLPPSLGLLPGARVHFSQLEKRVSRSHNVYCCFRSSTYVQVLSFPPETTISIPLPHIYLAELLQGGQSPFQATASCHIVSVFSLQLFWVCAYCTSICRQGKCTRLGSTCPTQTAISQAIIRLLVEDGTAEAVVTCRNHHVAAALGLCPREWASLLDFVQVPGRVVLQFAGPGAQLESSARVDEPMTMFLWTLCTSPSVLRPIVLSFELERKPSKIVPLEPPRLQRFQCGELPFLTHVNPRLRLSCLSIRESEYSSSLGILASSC
Sequence of CTC1;STN1 S96D;TEN1 (Q9H668 whole entry S96D, chain 2 of 3): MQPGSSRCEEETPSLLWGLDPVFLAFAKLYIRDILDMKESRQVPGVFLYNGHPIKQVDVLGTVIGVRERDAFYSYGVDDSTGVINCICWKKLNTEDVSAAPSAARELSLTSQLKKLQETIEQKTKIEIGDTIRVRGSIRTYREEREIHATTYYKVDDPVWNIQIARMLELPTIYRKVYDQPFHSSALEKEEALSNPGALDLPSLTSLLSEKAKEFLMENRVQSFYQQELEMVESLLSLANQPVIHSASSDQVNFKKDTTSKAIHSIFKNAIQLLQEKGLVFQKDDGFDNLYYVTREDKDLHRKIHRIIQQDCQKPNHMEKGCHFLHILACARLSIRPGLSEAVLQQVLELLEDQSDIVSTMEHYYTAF
Sequence of CTC1;STN1 S96D;TEN1 (Q86WV5 whole entry, chain 3 of 3): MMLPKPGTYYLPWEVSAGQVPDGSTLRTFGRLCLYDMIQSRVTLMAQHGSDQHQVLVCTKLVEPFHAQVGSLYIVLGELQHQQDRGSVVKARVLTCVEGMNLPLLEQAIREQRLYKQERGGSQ

CTC1;STN1 S96A;TEN1 = CTC1;STN1 S96A;TEN1 (human;human;human, UniProt Q2NKJ3;Q9H668;Q86WV5 1-1217;1-368;1-123, |S96A|); assay: as above
Sequence of CTC1;STN1 S96A;TEN1 (Q2NKJ3 whole entry, chain 1 of 3): as the sequence (Q2NKJ3 whole entry, chain 1 of 3) above
Sequence of CTC1;STN1 S96A;TEN1 (Q9H668 whole entry S96A, chain 2 of 3): as the sequence (Q9H668 whole entry S96D, chain 2 of 3) above, with D96A counted along it
Sequence of CTC1;STN1 S96A;TEN1 (Q86WV5 whole entry, chain 3 of 3): as the sequence (Q86WV5 whole entry, chain 3 of 3) above

Measured: binding result

Sequence of CTC1;STN1 WT;TEN1 (Q2NKJ3 whole entry, chain 1 of 3): as the sequence (Q2NKJ3 whole entry, chain 1 of 3) above
Sequence of CTC1;STN1 WT;TEN1 (Q9H668 whole entry, chain 2 of 3): as the sequence (Q9H668 whole entry S96D, chain 2 of 3) above, with D96S counted along it
Sequence of CTC1;STN1 WT;TEN1 (Q86WV5 whole entry, chain 3 of 3): as the sequence (Q86WV5 whole entry, chain 3 of 3) above

B1: Cy3-labeled 5' overhang DNA (Oligo 1 + Oligo 2) (mixed)
DNA 1: ACGCTGCCGAATTCTACCAGTGCCTTGCTAGGACATCTTTGCCCACCTGCAGGTTCACCC
DNA 2: GGGTGAACCTGCAGGTGGGCAAAGA
modifications: Oligo 1: phosphorothioate bonds at both ends (after nt 1-5 and as printed around the last 4 nt)
binds: all assays above

Reference: PMC10689503, “CaMKK2 and CHK1 phosphorylate human STN1 in response to replication stress to protect stalled forks from aberrant resection”
